Laboratory results as given in patent US20130171184A1 (MACK TRUCKS, published 2013).
Where no end group is shown, it is not given here. The star is where a group is joined. Biotin = O=C1N[C@H]2[C@H](CS[C@H]2CCCCC(=O)*)N1

B2: Neisseria meningitidis Hsf (Msf) of strain H44/76, expressed on meningococci (other)
chain: NNEEQEEDLYLDPVQRTVAVLIVNSDKEGTGEKEKVEENSDWAVYFNEKGVLTAREITLKAGDNLKIKQNGTNFTYSLKKDLTDLTSVGTEKLSFSANGNKVNITSDTKGLNFAKETAGTNGDTTVHLNGIGSTLTDTLLNTGATTNVTNDNVTDDEKKRAASVKDVLNAGWNIKGVKPGTTASDNVDFVRTYDTVEFLSADTKTTTVNVESKDNGKKTEVKIGAKTSVIKEKDGKLVTGKDKGENGSSTDEGEGLVTAKEVIDAVNKAGWRMKTTTANGQTGQADKFETVTSGTNVTFASGKGTTATVSKDDQGNITVMYDVNVGDALNVNQLQNSGWNLDSKAVAGSSGKVISGNVSPSKGKMDETVNINAGNNIEITRNGKNIDIATSMTPQFSSVSLGAGADAPTLSVDGDALNVGSKKDNKPVRITNVAPGVKEGDVTNVAQLKGVAQNLNNRIDNVDGNARAGIAQAIATAGLVQAYLPGKSMMAIGGGTYRGEAGYAIGYSSISDGGNWIIKGTASGNSRGHFGASASVGYQW
notes: Opc-deficient variants or mutants isolate the Msf effect; also called NhhA; NMB0992
B7: control peptide GS-22 (peptide)
peptide: Biotin-GSNENQKTVKAESVPNMSFDQS

What was measured:
[1] = biological target: B2; experiment: ELISA, bacteria on peptide immobilised on extravidin coated plates
[2] = biological target: T1, native human vitronectin preparation (nVn) (human, UniProt P04004 20-478); experiment: binding of bacteria to nVn against aVn as reference
T1 construct: Same protein as m4 in the native, closed conformation; also called native Vn
T1 sequence (P04004 20-478 limits assumed): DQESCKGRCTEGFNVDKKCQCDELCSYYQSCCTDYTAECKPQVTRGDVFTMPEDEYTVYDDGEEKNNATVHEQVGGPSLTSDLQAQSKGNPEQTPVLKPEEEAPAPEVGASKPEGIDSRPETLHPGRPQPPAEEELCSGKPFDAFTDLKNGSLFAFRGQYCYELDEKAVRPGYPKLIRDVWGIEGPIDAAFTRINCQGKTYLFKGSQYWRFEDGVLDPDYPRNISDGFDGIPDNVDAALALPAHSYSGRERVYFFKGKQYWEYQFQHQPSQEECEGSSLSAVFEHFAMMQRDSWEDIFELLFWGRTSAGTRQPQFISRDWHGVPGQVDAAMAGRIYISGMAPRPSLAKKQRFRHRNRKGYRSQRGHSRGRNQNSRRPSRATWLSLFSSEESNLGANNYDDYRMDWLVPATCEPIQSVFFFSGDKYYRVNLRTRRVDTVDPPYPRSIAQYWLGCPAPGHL

[3] = biological target: human fibronectin (from serum) (human, UniProt P02751 32-2296); experiment: bacteria incubated in decomplemented serum, dot blot with specific antibodies
Chain of human fibronectin (from serum) (P02751 other isoform, or with tags, fused parts or gaps limits assumed): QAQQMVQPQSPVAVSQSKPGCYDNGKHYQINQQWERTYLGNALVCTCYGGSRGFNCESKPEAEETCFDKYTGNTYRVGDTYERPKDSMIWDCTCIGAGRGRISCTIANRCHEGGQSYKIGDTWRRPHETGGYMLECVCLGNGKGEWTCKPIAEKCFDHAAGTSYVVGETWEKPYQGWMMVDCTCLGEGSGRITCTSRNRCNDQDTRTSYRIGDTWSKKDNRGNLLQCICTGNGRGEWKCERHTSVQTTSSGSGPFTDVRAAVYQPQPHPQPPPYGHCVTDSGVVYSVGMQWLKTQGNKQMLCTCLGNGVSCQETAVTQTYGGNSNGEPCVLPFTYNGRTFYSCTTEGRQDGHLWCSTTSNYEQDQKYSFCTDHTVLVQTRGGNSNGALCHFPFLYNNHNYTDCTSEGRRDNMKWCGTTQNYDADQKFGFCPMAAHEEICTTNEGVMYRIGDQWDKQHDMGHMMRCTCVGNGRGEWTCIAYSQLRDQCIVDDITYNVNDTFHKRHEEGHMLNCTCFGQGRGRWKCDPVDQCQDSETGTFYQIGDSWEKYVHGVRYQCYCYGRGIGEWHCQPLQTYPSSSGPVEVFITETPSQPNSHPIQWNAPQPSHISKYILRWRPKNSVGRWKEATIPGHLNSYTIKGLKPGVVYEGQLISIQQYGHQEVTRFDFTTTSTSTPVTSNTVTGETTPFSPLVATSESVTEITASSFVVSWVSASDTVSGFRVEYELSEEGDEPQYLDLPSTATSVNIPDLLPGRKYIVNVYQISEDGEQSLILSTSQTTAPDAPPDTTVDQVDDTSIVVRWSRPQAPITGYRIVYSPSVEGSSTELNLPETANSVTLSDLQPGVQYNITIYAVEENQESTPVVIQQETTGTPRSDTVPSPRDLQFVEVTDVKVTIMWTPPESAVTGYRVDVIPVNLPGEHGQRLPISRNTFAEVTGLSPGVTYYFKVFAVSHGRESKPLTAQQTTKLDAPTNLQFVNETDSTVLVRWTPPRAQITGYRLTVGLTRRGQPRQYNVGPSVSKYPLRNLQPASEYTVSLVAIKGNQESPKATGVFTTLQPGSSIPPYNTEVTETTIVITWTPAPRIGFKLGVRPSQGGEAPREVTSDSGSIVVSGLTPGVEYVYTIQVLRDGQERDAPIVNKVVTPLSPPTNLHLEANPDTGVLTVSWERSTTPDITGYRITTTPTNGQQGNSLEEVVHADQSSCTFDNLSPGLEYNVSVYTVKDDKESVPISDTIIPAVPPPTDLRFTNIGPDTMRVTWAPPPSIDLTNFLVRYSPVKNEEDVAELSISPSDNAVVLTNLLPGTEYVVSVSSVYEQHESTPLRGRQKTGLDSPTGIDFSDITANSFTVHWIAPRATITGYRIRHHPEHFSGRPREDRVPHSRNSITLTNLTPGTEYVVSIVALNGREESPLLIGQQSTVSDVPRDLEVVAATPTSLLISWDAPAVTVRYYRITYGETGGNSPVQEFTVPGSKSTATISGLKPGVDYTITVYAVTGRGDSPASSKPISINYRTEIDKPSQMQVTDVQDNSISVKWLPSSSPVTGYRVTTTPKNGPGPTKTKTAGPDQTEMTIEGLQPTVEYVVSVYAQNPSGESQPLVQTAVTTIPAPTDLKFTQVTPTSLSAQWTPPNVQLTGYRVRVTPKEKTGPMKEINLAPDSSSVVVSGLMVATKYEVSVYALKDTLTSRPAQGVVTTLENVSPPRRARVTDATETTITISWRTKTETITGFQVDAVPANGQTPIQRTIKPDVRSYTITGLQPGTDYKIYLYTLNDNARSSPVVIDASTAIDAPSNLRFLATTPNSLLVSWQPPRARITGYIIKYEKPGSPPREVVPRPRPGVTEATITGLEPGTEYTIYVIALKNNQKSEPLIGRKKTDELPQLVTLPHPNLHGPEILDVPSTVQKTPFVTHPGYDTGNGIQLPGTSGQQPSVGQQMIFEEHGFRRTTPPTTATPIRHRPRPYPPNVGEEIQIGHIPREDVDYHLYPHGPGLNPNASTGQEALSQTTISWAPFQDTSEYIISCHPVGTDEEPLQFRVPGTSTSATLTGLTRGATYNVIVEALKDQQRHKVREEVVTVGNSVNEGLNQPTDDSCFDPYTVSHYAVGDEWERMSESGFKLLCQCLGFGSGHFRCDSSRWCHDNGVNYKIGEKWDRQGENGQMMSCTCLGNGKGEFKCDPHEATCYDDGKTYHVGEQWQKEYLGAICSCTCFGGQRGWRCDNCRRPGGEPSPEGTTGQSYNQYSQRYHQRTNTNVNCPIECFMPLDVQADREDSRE

[4] = biological target: control peptide SY-30 (N-terminal biotin); experiment: ELISA with immobilised peptides
[5] = biological target: B7; experiment: ELISA with immobilised peptides
[6] = biological target: B2; experiment: ELISA, bacteria on immobilised vitronectin
[7] = biological target: B2; experiment: ELISA, bacteria on immobilised heparin-affinity purified vitronectin
[8] = biological target: B2; experiment: ELISA, bacteria on immobilised biotinylated peptide
[9] = biological target: B2; experiment: ELISA with immobilised peptides

B1: biotinylated vitronectin peptide AR-36 (Vn residues A360-R395, heparin-binding region) (peptide)
peptide: Biotin-APRPSLAKKQRFRHRNRKGYRSQRGHSRGRNQNSRR
notes: Synthetic peptide immobilised on extravidin coated plates; also called HBD peptide
B1: binds [1].

For B2, the “binding relative to the fully activated preparation of Vn” value [2] was ~30% and the binding result [3] was “no binding (tested: 10% pooled human serum)”.

B3: Neisseria meningitidis Opc of strain H44/76, expressed on meningococci (other)
chain: AQELQTANEFTVHTDLSSISSTRAFLKEKHKAAKHISVRADIPFDANQGIRLEAGFGRSKKNIINLETDENKLGKTKNVKLPTGVPENRIDLYTGYTYTQTLSDSLNFRVGAGLGFESSKDSIKTTKHTLHSSRQSWLAKVHADLLSQLGNGWYINPWSEVKFDLNSRYKLNTGVTNLKKDINQKTNGWGFGLGANIGKKLGESASIEAGPFYKQRTYKESGEFSVTTKSGDVSLTIPKTSIREYGLRVGIKF
notes: also called Opc-expressing Nm; (GB) Opc+Δµ
With B3 the binding result [4] was “no binding”, the binding result [5] was “no binding” and the “binding relative to the fully activated preparation of Vn” value [2] was ~30%.

B4: mouse vitronectin (other)
chain: DQESCKGRCTQGFMASKKCQCDELCTYYQSCCADYMEQCKPQVTRGDVFTMPEDDYWSYDYVEEPKNNTNTGVQPENTSPPGDLNPRTDGTLKPTAFLDPEEQPSTPAPKVEQQEEILRPDTTDQGTPEFPEEELCSGKPFDAFTDLKNGSLFAFRGQYCYELDETAVRPGYPKLIQDVWGIEGPIDAAFTRINCQGKTYLFKGSQYWRFEDGVLDPGYPRNISEGFSGIPDNVDAAFALPAHRYSGRERVYFFKGKQYWEYEFQQQPSQEECEGSSLSAVFEHFALLQRDSWENIFELLFWGRSSDGAREPQFISRNWHGVPGKVDAAMAGRIYVTGSLSHSAQAKKQKSKRRSRKRYRSRRGRGHRRSQSSNSRRSSRSIWFSLFSSEESGLGTYNNYDYDMDWLVPATCEPIQSVYFFSGDKYYRVNLRTRRVDSVNPPYPRSIAQYWLGCPTSEK
notes: also called mouse Vn
B4: binds [6].

B5: rabbit vitronectin (other)
chain: DQESCKDRCTEGFNANRKCQCDELCSYYQSCCADYAAECKPQVTRGDVFTMPEDEYGPYDYIEQTKDNASVHAQPESPTVGQEPTLSPDLQTEGGAEPTHEVPLEPEMETLRPEGEDLQAGTTELGTSASPAEEELCSGKPFDAFTDLKNGSLFAFRGQYCYELDETAVRPGYPKLIQDVWGIEGPIDAAFTRINCQGKTYLFKGSQYWRFEDGILDPDYPRNISEGFSGIPDNVDAAFALPAHSYSGRERVYFFKGDKYWEYQFQQQPSQEECEGSSLSAVFEHFAMLHRDSWEDIFKLLFWGRPSGGARQPQFISRDWHGVPGKVDAAMAGRIYISGLTPSPSAKKQKSRRRSRKRYRSRYGRGRSQNSRRLSRSISRLWFSSEEVSLGPYNYEDYETSWLKPATSEPIQSVYFFSGDKYYRVNLRTQRVDTVNPPYPRSIAQYWLGCPAPGGQ
notes: also called rabbit Vn
B5: binds [7].

B6: biotinylated vitronectin peptide VA-26 (amino acids 43-68) (peptide)
peptide: Biotin-VTRGDVFTMPEDEYTVYDDGEEKNNA
notes: Synthetic peptide of human vitronectin V43-A68
B6: binds [8].

B7: no binding [9].
